In the DeepSol protein solubility set:

test: soluble on expression in E. coli; label from the status in PepcDB or PDB records

| Sequence | soluble on expression in E. coli |
| --- | --- |
| MVLQIMLLTKPVPLYPPYIDLCDFDFDDYPQLDKIFSSNEPWWLEQFNWGKIFLTYIGRNKSAHTYERFRNDVERFLLWSFIVKKKPIDQLRKSDLLEYADFCWQPPVDWIGTSNQERFKITNGYSAANELWFPYKIQAPKSLKSQFVIDKKKYRPSQQTLSSMFTAIIVFYNYLMAEDFCIGNPAQIAKKDCRHFIIDSQVKEIKRLTGSQWQFVLDTAVEMADENAMFERNLFVIASLKTLFLRISELSERPNWSPTMGHFWQDDDENWWLKIFGKSRKLRDITVPIDFLPFLERYRASRGLLGLPSSNENSILVEKVRGQGGMTSRHLRRLVQSVFDQAHENMRRSEGENKALKLKEASAHWLRHTGASMEIERGRPLKDISEDLGHASMATTDTVYVQSENKKRAESGKRRKVD | not soluble |
| MVLTEDFGYPLSRIKLEYEVTFGREKKRADIVIFDKQQTDSPYIIIEVKKPKLKDGKEQLKSYCNATGAPIGVWSNGKSISYYHRKDPNYFEDISNIPRADQKLSDILSERWTIADLIEKDKLISERKSLKDLILEMEDEVLAGAGVDVFEEVFKLIFTKLFDEMESGRNNERNLEFRNYGDTETELKERIQNLFDKARDKWEGVFSPDAKIQLTPSHLSVCVASLQDVKLFNSNLDVVDEAFEYLINKSSKGEKGQYFTPRYVIDMCVKMLNPTANEKMIDTASGSCGFPVHTIFHVWENILKEKGLERSHLFTLEQKPAECTDYVNDNVFAIDFDEKAVRVARTLNLIAGDGQTNVLHLNTLDYERWEQNLDSEDWQDTYFEGWKKLKKLRTRKDSYRDFTFDIVMANPPFAGEVKESRILAKYDMSRSMSLEKVKIAPKGATIVEGEPTFSEALANTGETIYQMSDGTYRKTKLKQAGNMSRDILFVERNLDFLKPGGRMAIVLPQGRFNNSSDKALREYIADRCRILAVVGLHGNVFKPHTGTKTSVLFVQKWDEELCPRVEDYNIFFATMQEPSKDNSGDKIYRSTTNEEGENVPLLDTHGHLIVKHDLFNHDGLTEDGIAEAFAEFAKKERLSFFADAPLTK | not soluble |
| MVMEVDEPAVAATTSQNQPQEHANDFDMDTSEGPIENDETFEPVDQINWKFNQVKGNIDADVHTEADVISCVEFSHDGEYLATGDKGGRVVIFQRDQSGKYVKGVRSREYNVYSTFQSHEPEFDYLKSLEIDEKINQIRWLKKKNAANFILSTNDKTIKLWKISERERKIGDDAWNLPRTNRINTSSFRGRLQIPSIVPMELIVEASPRRVYGNAHTYHVNSISVNSDQETFLSADDLRVNLWNLEITNESFNIVDIKPANMEELTEVITAAEFHPTQCNWFVYSSSKGSIRLCDMRDRALCDAYAKIFEEPEDPQSRSFFSEIIASVSDVKFSHNGRYLLTRDYLTVKVWDLNMESQPVETYPVHNYLRTKLCALYENDSIFDKFECDWSGDDKHILTGSYHNLFRSYARGNNQDAKTWEARPQEPHSQLRSRFVVPSAKRKRNNLSSSGETTEEDLSSDQLQFDRKILHTAWHPKDNIIALAATNNLYIFSDV | not soluble |
| MVMKLIKRSLLLLGAVLLITLPAYSQNDDIFEDDIYTSRKEIRKQNQVKDWQNQEDGYGDDTEYTVASDRDIDAYNRRDGQSYDGKKLSKDKKRDSTRSSVPGRYSRRLARFYKPNTIVISGADNVYVTDDGEYFVYGDEYYDDASSVNIYINSPWCDPFPYTSWYPSFSGWYNYTWNYPWFYYGSHIGWGGYYPGYNWYWSYYYDPFYNPYGIGMGWGYPYGWGSYYGWGGYPGVIHHYHHYPKKTYSNGQHSGAYYSYGRPNRIKGGTSGAKLGTGRYDRIQNSSSQKNKFGLQSNKPNNNLQNVKSGRTGRANRDRNIETVTPNNGQKQNRPVFQQNQSGNDRPTGRNIRSERQGENNDRTFSTPSRSNSNGGFSTPSRSSSGSMSGGGGRSGRGRN | not soluble |
| MVNRFREKLKPDQYLCRIEGTQFVLVSLENDVSNITQIADELRNVVSKPIMIDDNPFPLTLSIGISYDVGKNRDYLLSTAHNAMDYIRKNGGNGWQFFSPAMNEMVKERLVLGAALKEAISNNQLKLVYQPQIFAETGELYGIEALARWHDPQHGHVPPSRFIPLAEEIGEIENIGRWVIAEACRQLAEWRSQNIHIPALSVNLSALHFRSNQLPNQVSDAMQAWGIDGHQLTVEITESMMMEHDTEIFKRIQILRDMGVGLSVDDFGTGFSGLSRLVSLPVTEIKIDKSFVDRCLTEKRILALLEAITSIGQSLNLTVVAEGVETKEQFEMLRKIHCRVIQGYFFSRPLPAEEIPGWMSSVLPLKI | not soluble |
| MVPAPEAIRQALQERLLARLDHPDPLYRDLLQDYPRRGGKMLRGLLTVYSALAHGAPLEAGLEAATALELFQNWVLVHDDIEDGSEERRGRPALHRLHPMPLALNAGDAMHAEMWGLLAEGLARGLFPPEVLLEFHEVVRRTAYGQHLDLLWTLGGTFDLRPEDYFRMVAHKAAYYTAVAPLRLGALLAGKTPPAAYEEGGLRLGTAFQIVDDVLNLEGGEAYGKERAGDLYEGKRTLILLRFLEEAPPEERARALALLALPREAKPEAEVGWLLERLLASRALAWAKAEAKRLQAEGLALLEAAFQDLPGKEALDHLRGLLAALVERRA | soluble |
| MVPSNAESQSVVVIGAGIGGLTTAALLAQQGYRVKVYEQAAIVGGCASTFRRRGFIFDVGATQVAGLEPGGIHHRIFRQLQVDLPEATLCDPACAVFLPGEKQPINVWHDPERWQREREQQFPGSGRFWQLLQTLFQISWRFQGRDPVLPPRSMWDLGQLLGALRPDTLLTAPFVPLTVGDTLRLLGLGSDQRLKTFLDLQLKLYSQVGADETALLYAATALSVSQGPQGLWHLQGSMQTLGDRLVEALKNHGGELFCSQRVEQIHCGQGYVEGVTVRDVRSGEVRQEKAQQVVANLTVQNLLQALDQPLPGYQKRVTNLPSGSGAFVIYLGVKEDAIPPDCAPHLQFLYDHQGPIGENNSLFVSVSKPGDGRAPRGCRTVIASSFTDVAPWWNASREQYQALKESYTTTAISRLGEYFNLDESTIVHQESATPRTFDRYTARDQGIVGGVGQRLTTFGPFGFAPRTPIRNLWLVGDSVHPGEGTAGVSYSALTIARQICASGATNSLEHHHHHH | not soluble |
| MVRFRREGVRLDQAVAEALSVSRAKAQAWIQAGRVRVGDRVVLKPAYRLKGEEVAVEPVEEAPMVLPEDLPIPILYEDEDVLALNKPPGLLTHPAPGVYSGTVVNLLLARYYGPVEKGPPELVRPGIVHRLDKDTSGVLVVAKHGGDLEGLARAFRDRLVMKRYLAITEGHPREGVLIAPIGRHPRERHKMHVGGLAARYAETEFQVLATAGPYALVEARPHTGRTHQIRVHLKYLGAPILGDELYGRKSPHIGRQALHAYELRIPHPRTGRILELLAPVPQDMAAAWEALGGRWPEEVVREGYAGAQ | soluble |
| MVRVAVIGGSGVYDFPAENKRELTVETPYGKVNLTIGHVAGEEVAFLARHGKGHSVPPHKVNYRANIWALHELGVERIVATSAVGSLNPNMRPGDFVILDQLIDFTVSRPRTFYDGEESPHDRKFVAHVDFTEPYCPEIRRALITAAKDLSLPYHPKGTYVCTEGPRFETAAEIRAYRILGGDVVGMTQCPEAALARELEMCYATVAIVTNYAAGISGKKLTHAEVVELMNKKTREITALITKAIPLIPKERNCPCKDALKGATG | soluble |
| MVRVGMRAAPRVSLEALKAALGGLKLSEAKVYLITDWQDKRDQARYALLLHTGKKDLLVPDAFGPAFPGGEEALSELVGLLLAQGARRFYEAVVSPGEMTALLDLPPEELLKRVMAIANPTDPGIYLKRAA | soluble |
| MVSAPPTLQDQAFRSLVRNEVLTVSDAECLIREFFPPLFKEASTQKKPKTIMILVEHWPYPCLHVGLLIDKPNFQIFQAILDGVDTWLKRKYRPRMGRLKKVDFRDAQHHASLDMQDEREGRDYLVGTLPKKQIVEDHSRTRKERLKLFHDLSFMSSLHEDKHQTLLLEWAKERTSFLHLCCEKLEIGAVEVSKVRNVLKFLQPELIKELKLNTVGNLSKLAKFVPFIRKMRNLQKLMLVRTFGTRTFTQEEKQNISKIISLFCKLSCLRHLTIDDVYFLTDQMKELLRCLEAPLVSLKITLCQLSQSDLESFAQRWNYSQLKHLCLRGVTLTNLDVTPLRDFLKRVAANLQTLDLEDCRMDDSHFRTLLPALIKCTQLTSINLYDNDISEDVLENFLHRTTNLSQLTTEMYPAPSEVYNESNYVIVEIFIQICSELMNKLMEVRQANSVCFGSSSCYDCDNRYLYEDDGDVTLCLCQE | not soluble |
| MVSARLIFVPLHARPSGISSATTGYVPWRSFIYRNGGGRPVQSSRPWLNMQQTLRITEIFYSLQGETRTAGLPTVFVRLTGCPLRCHYCDTAYAFSGGDVVSLDAIFERVAAYKPRYICVTGGEPLAQPNCISLLERLCDAGYEVSLETSGALDVSRVDPRVSKVLDLKTPGSGEVGRNRYENIPLLTDNDQVKFVVCSREDYDWAVSKLIEYRLDQRAGEVLFSPSHHQVSARELADWIVADNLPVRLQLQLHKILWNDEPGH | soluble |
| MVSDIVLEVQSLHVYYGAIHAIKGIDLKVPRGQIVTLIGANGAGKTTTLSAIAGLVRAQKGKIIFNGQDITNKPAHVINRMGIALVPEGRRIFPELTVYENLMMGAYNRKDKEGIKRDLEWIFSLFPRLKERLKQLGGTLSGGEQQMLAIGRALMSRPKLLMMDEPSLGLAPILVSEVFEVIQKINQEGTTILLVEQNALGALKVAHYGYVLETGQIVLEGKASELLDNEMVRKAYLGVA | soluble |
| MVSFKRYELPPLPYNYNALEPYIIEEIMKLHHQKHHNTYVKGANAALEKIEKHLKGEIQIDVRAVMRDFSFNYAGHIMHTIFWPNMAPPGKGGGTPGGRVADLIEKQFGGFEKFKALFSAAAKTVEGVGWGVLAFDPLTEELRILQVEKHNVLMTAGLVPILVIDVWEHAYYLQYKNDRGSYVENWWNVVNWDDVEKRLEQALNNAKPLYLLPQ | soluble |
| MVSFVNCRSQIKTNMQEQNNPLLCNPESGFCEMPSIKPDTAHQADLKSDKKPVKVIYYTDPICSSCWGIEPQLRKLKLEYGTSIDIEYRMGGLLPDWSYNSGGISKPSDVAHHWDEVSVYYDMPIDGGVWLEDPLPSSYPPSIAFKAVQIQSTERAILFLREIREMVFLQKKNIAKWEHLEQAAKNTGVNIEQFKKDYEGRAKDLFYADLKLARDLGVHGFPTMIFSDSTGKNETVYGYKPYAVFENTIAGLYPSVQKYTYDKSIAAVFSTFHSLTAKEFSELTGVARNQSEQMLDEYVKQGMLQKWTTKNGSLWSLKK | not soluble |
| MVSIELRDIIKRFGEFELKVSLSVKDGELLTLLGPSGCGKTTTLRIIAGLEKPDKGRVYFDGRDITDLPPYERNIGLVFQDYALFPHMTVFKNVAFGLEVRRVPRMEIEKRVREVLDLVGLRGFENRLPEELSGGQQQRVALARALVIEPDVLLLDEPLSNLDAKVREKLRGEIKRIVKELGITTIYVTHDQEEAMVLSDRIAVMNFGRIEQVGEPYDLYYNPKNEFVANFLGISNIVELEAKEGRACLGDLCFEVGREGKGKIFFRPENVAVGEGIEAEVIGYELLPGRVRLRLSIEGREIIAEELLSRIGKKIPKKVRIRVREFKILP | soluble |
| MVSKIIKLGVPTATLAVGTLLLGDDEKRSAFFRTASAFTQNHGHKTFDEHFPRGEWDKNWDFRDPISLVDKGKWEKADEEGKKKLIEEKKATATRNIFLIRHGQYHLDHEVKMLTPLGREQAELLGKRLANSDIKFTNMTMSTMVRATETANIILKHLPDDLTRTSSPFIEEGPPYPPVPDHKTWRPLDPEFYTEAARIESAYRKIFHRASPSQKEDSFELIVCHANVIRYFICRALQFPPEGWLRMSLGNCSLTWITIRPKGHVSVRSIGDIGHLPPNKISFT | not soluble |
| MVSYKARISLSGTEHRVVDRVCNEIKEIASRTGVEIHGPMPLPTKRLVVPVRKSPDGEGTNTWDHWEMRIHKRLIDVDADERTLRQLMRIPIPDGVQIEIQIKS | soluble |
